Laboratory results published in US7635583B2, “Protein crystal comprising the processivity clamp factor of DNA polymerase and a ligand, and its uses” (Centre National de la Recherche Scientifique, priority 2003, dated 2009).

Legend:
[1] = biological target: β clamp-Pol IV DNA polymerase interaction (Escherichia coli, UniProt P0A988); details: Pol IV 1.5 nM; for effect on β-dependent Pol IV activity: peptide 1, 10, 25 μM
Method: (§1) FIG. 3A represents the migration pattern of an electrophoresis gel. β free (lanes 1-4 and 9-12) or β loaded (lanes 5-8 and 13-16) labelled primer/template hybrids are incubated with increasing amounts of control peptide (CLIP) (lanes 1-8) or P16 peptide (lanes 9-16). Concentrations of peptides are as follows: 0 μM, lanes 1, 5, 9 and 13; 1 μM, lanes 2, 6, 10 and 14; 10 μM, lanes 3, 7, 11 and 15; 25 μM, lanes 4, 8, 12 and 16. This mixture is then submitted to the enzymatic activity of Pol IV (1.5 nM) in the presence of each four dNTPs for 1 minute at room temperature. Beside the overall increase in DNA synthesis activity, the β-dependent activity of the polymerase is characterised by the apparition of synthesis products longer than 12 nucleotides (β dependent synthesis), β independent synthesis is characterised by products shorter than 12 nucleotides. […] FIG. 3B represents the quantitative analysis of the relative amounts of each β-independent (incorporation of 1 up to 12 nucleotides) and β-dependent (12 and more nucleotides incorporation) activities observed in lanes 5-8 and 13-16. Black and white rectangles represent the ratio of β-dependent to β-independent polymerase activities (vertical axis) in the presence of specified amounts of CLIP and P16 peptides (horizontal axis), respectively. Decrease in this ratio value actually indicates a specific inhibition of the β-dependent polymerase activity.
(§2) Briefly, P16 peptide and a control peptide (CLIP) were diluted in 20 mM NaHCO3 at concentrations of 250, 100 and 10 pmol/μl. 5′ end radiolabelling, purification and annealing of synthetic primers were performed as previously described (Wagner et al., 1999).
All replication experiments (10 μl final volume) were carried out in buffer E (40 mM HEPES pH 7.5, 80 mM potassium glutamate, 160 μg/ml BSA, 16% glycerol, 0.016% NP40, 8 mM DTT). The 30/90 nucleotide hybrid was first incubated with single strand binding proteins (SSB; Sigma; 90 nM final concentration) in the presence of ATP (200 μM) and MgCl2 (7.5 mM) at 37° C. for 10 min. […]

Pol IV DNA polymerase = biological target: T1, Pol IV DNA polymerase (Escherichia coli, UniProt Q47155); assay: intrinsic (β-independent) activity of Pol IV, primer extension on β free primer/template; type: biochemical; details: peptide 1, 10, 25 μM, Pol IV 1.5 nM
T1 sequence (Q47155 1-351): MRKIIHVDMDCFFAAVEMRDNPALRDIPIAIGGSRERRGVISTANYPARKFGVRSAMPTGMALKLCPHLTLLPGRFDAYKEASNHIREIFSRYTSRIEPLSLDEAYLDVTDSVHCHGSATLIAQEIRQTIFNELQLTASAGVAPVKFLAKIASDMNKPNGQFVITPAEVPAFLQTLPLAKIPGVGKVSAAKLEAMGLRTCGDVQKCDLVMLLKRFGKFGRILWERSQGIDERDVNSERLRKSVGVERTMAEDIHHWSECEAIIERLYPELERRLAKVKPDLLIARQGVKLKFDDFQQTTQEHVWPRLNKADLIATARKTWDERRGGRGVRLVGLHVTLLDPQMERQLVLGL
Method: as §1, with “Decrease in this ratio value actually indicates a specific inhibition of the β-dependent polymerase activity.” left out

[2] = biological target: β clamp-α subunit of DNA Polymerase III interaction (Escherichia coli, UniProt P0A988); details: peptide 1, 10, 25 μM; α subunit 6 nM
Sequence of β clamp-α subunit of DNA Polymerase III interaction (P0A988 whole entry): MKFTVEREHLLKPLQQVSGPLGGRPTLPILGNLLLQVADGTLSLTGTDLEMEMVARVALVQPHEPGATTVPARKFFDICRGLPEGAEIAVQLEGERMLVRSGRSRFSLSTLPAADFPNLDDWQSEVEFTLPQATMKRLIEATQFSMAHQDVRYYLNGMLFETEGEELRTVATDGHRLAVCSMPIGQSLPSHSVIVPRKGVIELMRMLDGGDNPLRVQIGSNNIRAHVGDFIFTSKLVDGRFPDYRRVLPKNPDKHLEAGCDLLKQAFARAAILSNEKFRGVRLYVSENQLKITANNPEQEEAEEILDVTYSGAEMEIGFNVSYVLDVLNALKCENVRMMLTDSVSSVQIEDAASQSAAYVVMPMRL
Method: as §2
All replication experiments (10 μl final volume) were carried out in buffer E (40 mM HEPES pH 7.5, 80 mM potassium glutamate, 160 μg/ml BSA, 16% glycerol, 0.016% NP40, 8 mM DTT). The 30/90 nucleotide hybrid was first incubated with single strand binding proteins (SSB; Sigma; 90 nM final concentration) in the presence of ATP (200 μM) and MgCl2 (7.5 mM) at 37° C. for 10 min. When specified, the γ complex (1 nM final concentration) (gift from Dr. C. S. McHenry, Denver, USA), and the β clamp (5 nM as dimer final concentration) were added at that stage, and incubation was carried out at 37° C. for 10 min. Then, 7 μl of the mixture was added to 1 μl of either 20 mM NaHCO3 or 1 μl of peptide solution (1, 10 or 25 μM final concentration), incubated 20 min. at room temperature and farther 2 hours at 4° C.

Sequence of β clamp-Pol IV DNA polymerase interaction (P0A988 whole entry): as above

Row | Sequence | effect on β-dependent Pol IV activity [1] | effect on intrinsic activity of Pol IV (distributive incorporation of one to up to 12 nucleotides) (Pol IV DNA polymerase) | decrease of β-dependent Pol IV activity (factor) ([1]; highest P16 concentration tested, 25 μM, β clamp 5 nM) | effect on α subunit β-dependent activity [2]
1 | RPVKVTPNGAEDESAEAFPLEF (Control peptide) [CLIP, 22-mer control peptide, reference compound] | no effect | neither P16 nor CLIP peptides do affect |  | 
2 | VTLLDPQMERQLVLGL (listed as Escherichia coli) [P16, 16-mer peptide representing the 16 last residues of Pol IV DNA polymerase of E. coli] | inhibits the β-dependent activity of Pol IV | neither P16 nor CLIP peptides do affect | around 30 | dose dependent inhibition
